Literature values as cited in PMC4485156.

Biological target: haptoglobin-hemoglobin complex (Homo sapiens) (UniProt P00738)
UniProt P00738, sequence (P00738 19-406, chain 1 of 3): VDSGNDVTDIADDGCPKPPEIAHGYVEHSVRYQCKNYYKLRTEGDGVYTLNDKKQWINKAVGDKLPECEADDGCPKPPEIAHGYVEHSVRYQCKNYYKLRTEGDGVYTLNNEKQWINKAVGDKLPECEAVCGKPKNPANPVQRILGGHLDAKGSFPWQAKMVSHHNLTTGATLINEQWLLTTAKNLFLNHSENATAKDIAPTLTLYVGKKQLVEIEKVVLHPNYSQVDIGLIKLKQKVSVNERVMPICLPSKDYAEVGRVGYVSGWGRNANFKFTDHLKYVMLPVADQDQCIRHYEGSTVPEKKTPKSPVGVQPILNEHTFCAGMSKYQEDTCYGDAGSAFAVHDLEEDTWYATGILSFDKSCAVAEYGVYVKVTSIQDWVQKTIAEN
UniProt P00738, sequence (P69905 2-142, chain 2 of 3, further chain): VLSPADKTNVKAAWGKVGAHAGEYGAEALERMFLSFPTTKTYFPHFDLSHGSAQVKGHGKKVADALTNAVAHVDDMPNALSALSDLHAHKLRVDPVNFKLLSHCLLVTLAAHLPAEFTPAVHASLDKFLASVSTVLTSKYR
UniProt P00738, sequence (P68871 2-147, chain 3 of 3, further chain): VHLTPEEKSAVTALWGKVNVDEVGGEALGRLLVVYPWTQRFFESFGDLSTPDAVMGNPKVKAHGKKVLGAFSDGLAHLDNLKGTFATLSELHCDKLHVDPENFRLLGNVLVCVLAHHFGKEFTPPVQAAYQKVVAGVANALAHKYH

Kd: 19 nM
Substance: CD163 (from UniProt Q86VB7)
